# Data published in patent publication US20090196913A1, “Anti-Alpha-V Immunoliposome Composition, Methods, and Uses” (priority 2007, published 2009).
# Target: murine αVβ3/5 integrin on the murine melanoma cell line B16-F10 (murine) (UniProt P43406)
# Test: cell-based or functional assay
# Design: IC50 of doxorubicin, cell viability, murine melanoma B16-F10, integrin targeted liposome-entrapped dox 90:1: unit not given beside the values
# Sequence of murine αVβ3/5 integrin on the murine melanoma cell line B16-F10 (murine) (P43406 31-1044): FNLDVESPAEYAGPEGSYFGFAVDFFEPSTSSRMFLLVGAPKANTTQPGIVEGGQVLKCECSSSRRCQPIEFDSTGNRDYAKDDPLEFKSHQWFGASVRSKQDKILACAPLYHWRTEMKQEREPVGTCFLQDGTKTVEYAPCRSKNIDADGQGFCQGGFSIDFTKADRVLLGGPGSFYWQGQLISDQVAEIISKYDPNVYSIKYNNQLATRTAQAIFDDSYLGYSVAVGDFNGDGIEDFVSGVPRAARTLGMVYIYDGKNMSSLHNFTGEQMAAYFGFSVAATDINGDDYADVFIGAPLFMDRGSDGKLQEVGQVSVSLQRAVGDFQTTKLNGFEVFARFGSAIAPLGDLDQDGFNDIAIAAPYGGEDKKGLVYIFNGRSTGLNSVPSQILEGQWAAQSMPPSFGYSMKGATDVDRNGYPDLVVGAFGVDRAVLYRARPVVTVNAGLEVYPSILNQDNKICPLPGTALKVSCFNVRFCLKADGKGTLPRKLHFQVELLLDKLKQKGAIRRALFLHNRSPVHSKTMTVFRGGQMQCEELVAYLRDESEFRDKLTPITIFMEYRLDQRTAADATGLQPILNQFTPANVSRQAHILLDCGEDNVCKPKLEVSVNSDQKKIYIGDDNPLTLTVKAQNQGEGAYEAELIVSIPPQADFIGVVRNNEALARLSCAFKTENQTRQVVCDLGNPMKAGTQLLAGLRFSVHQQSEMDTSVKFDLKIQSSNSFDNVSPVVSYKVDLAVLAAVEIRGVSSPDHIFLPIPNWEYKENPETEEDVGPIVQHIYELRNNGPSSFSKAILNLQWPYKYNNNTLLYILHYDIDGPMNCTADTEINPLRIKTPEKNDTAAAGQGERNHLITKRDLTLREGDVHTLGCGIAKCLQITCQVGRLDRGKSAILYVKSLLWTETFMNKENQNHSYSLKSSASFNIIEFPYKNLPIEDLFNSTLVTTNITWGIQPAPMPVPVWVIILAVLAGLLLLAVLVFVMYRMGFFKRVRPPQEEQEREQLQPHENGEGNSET
substance,measurement,value
"CNTO95 Fab′ (from pepsin cleavage, reduction and reoxidation) conjugated to PEG-DSPE on the surface of liposomes","IC50 of doxorubicin, cell viability, murine melanoma B16-F10, integrin targeted liposome-entrapped dox 90:1",> 200
same,"Increase (ratio of IC50 of liposome-entrapped doxorubicin to IC50 of 90:1 integrin-targeted liposomes), murine melanoma B16-F10",1
